Measurements from US20250263441A1 (published 2025).

biological target: Toll-Like Receptor 2 (TLR2); test: SPR
Sequence (chain, as listed by the source): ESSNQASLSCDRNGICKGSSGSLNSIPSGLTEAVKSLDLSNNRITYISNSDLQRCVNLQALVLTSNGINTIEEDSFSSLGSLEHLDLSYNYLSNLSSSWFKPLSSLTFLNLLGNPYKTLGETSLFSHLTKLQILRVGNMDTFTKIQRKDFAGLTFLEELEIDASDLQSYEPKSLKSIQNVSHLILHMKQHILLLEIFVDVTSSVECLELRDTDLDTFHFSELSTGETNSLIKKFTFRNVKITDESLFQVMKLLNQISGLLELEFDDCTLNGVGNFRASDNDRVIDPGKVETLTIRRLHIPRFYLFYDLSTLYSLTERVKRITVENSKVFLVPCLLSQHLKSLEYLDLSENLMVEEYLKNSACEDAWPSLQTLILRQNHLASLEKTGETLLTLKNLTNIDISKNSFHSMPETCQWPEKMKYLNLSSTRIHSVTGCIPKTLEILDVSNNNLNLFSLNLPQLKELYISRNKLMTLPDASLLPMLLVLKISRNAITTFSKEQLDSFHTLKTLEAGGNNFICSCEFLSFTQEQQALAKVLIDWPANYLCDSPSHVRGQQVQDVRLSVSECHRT

Kd	Binder
834 nM	GIFKKITGKCFKWIK (Chemically synthesized variant of AMP5) [AMP5-L10C]
543 nM	GIFKKITGKLFKWIK (also called polypeptide 1) [AMP5]
373 nM	GIFKKIAGKLFKWIK (Chemically synthesized variant of AMP5) [AMP5-T7A]
